Read-outs that look alike come from different tables or passages of the source. Where only a bound is given, the exact number is not on record here.

Here are results for two molecules from patent US20250009876A1 (H LUNDBECK A S, published 2025).

For assay [1], the target named is T1, VIP (Vasoactive Intestinal Peptide) (human).
T1 construct: also called human VIP
T1 peptide: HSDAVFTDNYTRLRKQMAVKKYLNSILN
Description: SPR (ProteOn XPR36), antibody amine-coupled, peptide analyte, 1:1 Langmuir fit.

The target in assay [2] is T2, PACAP38 (Pituitary Adenylate Cyclase-Activating Polypeptide, 38 amino acids) (human, not fully specified; the C-terminal lysine is amidated).
T2 peptide: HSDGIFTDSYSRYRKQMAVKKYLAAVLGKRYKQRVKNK
Nature of the assay: cell-based or functional assay.

Assay [3] deals with T3, PACAP27 (Pituitary Adenylate Cyclase-Activating Polypeptide, 27 amino acids) (human, the C-terminal leucine is amidated).
T3 peptide: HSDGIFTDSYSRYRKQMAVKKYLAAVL
Nature of the assay: cell-based or functional assay.

Assay [4] addresses T2, PACAP38 (Pituitary Adenylate …). Nature of the assay: cell-based or functional assay.
For assay [5] the target is unchanged. Nature of the assay: cell-based or functional assay.
Assay [6] deals with T4, PAC1-R on PAC1-R-expressing PC-12 cells (UniProt P32215 20-523).
T4 construct: whole, on cells; also called PAC1 receptor
T4 sequence (looked up): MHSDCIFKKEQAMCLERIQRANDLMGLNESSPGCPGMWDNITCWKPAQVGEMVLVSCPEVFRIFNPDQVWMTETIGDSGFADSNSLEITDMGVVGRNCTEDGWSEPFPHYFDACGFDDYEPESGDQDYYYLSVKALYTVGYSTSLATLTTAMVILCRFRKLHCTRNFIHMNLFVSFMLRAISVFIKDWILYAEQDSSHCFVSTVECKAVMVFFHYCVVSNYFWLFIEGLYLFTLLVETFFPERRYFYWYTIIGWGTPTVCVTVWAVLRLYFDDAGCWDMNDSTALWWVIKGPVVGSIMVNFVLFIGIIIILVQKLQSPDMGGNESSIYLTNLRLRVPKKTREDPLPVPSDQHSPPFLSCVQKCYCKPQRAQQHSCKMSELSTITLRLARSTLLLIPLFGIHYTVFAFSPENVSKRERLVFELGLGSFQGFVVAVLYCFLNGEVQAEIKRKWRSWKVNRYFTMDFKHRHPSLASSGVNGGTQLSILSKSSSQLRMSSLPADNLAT
Description: cell surface binding assay (DELFIA TRF): antibody pre-incubated with PACAP38, added to PAC1-R-expressing PC-12 cells, detected with Eu anti-human IgG. As for the experimental part: Cells were initially seeded at 1×10⁵ cells/well in a solution of complete RPMI (“cRPMI”: RPMI medium supplemented with 10% sterile heat-inactivated FBS and 1% sterile antibiotic/antimycotic)+10% FBS, and the plates were allowed to incubate overnight at 37° C. On the day of the binding assay, antibodies at an initial concentration of 15 μg/ml were diluted at a 1:3 ratio in DELFIA® binding buffer (50 mM Tris, 150 mM NaCl, 0.1% azide, 2% horse serum) (Perkin-Elmer, Waltham, MA) to a total volume of 60 μL in a separate 96 well round bottom plate. PACAP38 was prepared for the binding assay by diluting it in DELFIA® binding buffer to a concentration of 200 nM, and then 60 μl of the diluted PACAP38 was added to each of the antibody-containing wells to form antibody: antigen complexes. Following addition of PACAP38, the antibody: antigen complexes were incubated at room temperature on a shaker for 1 hour. Separately, the PC-12 cells were prepared for addition of antibody: antigen complexes by washing the cells two times with DELFIA® wash buffer (50 mM Tris, 150 mM NaCl, 0.1% Azide) (Perkin-Elmer, Waltham, MA). After washing the cells two times and following the 1 hour room temperature incubation of the antibody: antigen complexes, 50 μl of the antibody: antigen complex was added to each well containing cells. The mixtures of cells and antibody: antigen complexes were then incubated for 30 minutes at room temperature. Following this 30 minute incubation, each mixture was washed two times with DELFIA® wash buffer (Perkin-Elmer, Waltham, MA).
DELFIA® Europium labeled anti-human IgG detection reagent (Cat #1244-330, Perkin-Elmer, Waltham, MA) was diluted to a concentration of 300 ng/ml in DELFIA® Binding Buffer. Following dilution, 50 μl of the anti-human IgG detection reagent was added to each well containing cells, and a 30 minute incubation at room temperature followed this addition of IgG detection reagent. After completion of the 30 minute room temperature incubation, the cells were then washed two times with DELFIA® wash buffer. Next, 50 μl of DELFIA® Enhancement Solution (Cat #1244-105, Perkin-Elmer, Waltham, MA) was added to each well containing cells for a final 15 minute room temperature incubation with shaking. The plates were then read (TRF, excitation 330 nm, emission 620 nm) on a SPECTRAMAX® (Molecular Devices, Sunnyvale, CA) plate reader.

Assay [7] concerns the target T3, PACAP27 (Pituitary Adenylate …). Nature of the assay: inhibition of 0.1 nM 125I-PACAP27 binding to membranes with human PAC1-R long isoform, filter binding. The procedure: To identify antibodies that block PACAP27 binding to PAC1-R, antibodies at an initial concentration of 30 nM were diluted in incubation buffer (50 mM Hepes pH 7.4, 1 mM CaCl₂, 5 mM MgCl₂, 0.2% BSA) and serial 1:3 dilutions were performed. Antibody dilutions (30 nM, 10 nM, 3 nM, 1 nM, 0.3 nM, 0.1 nM, 0.03 nM, 0.01 nM, 0.003 nM and 0.001 nM) were then mixed and pre-incubated at 25° C. for 30 minutes with 0.1 nM of ¹²⁵I-labelled PACAP27 in incubation buffer. The antibody: ¹²⁵I-labelled PACAP27 mixture was then added to 0.5 μg aliquots of cell membranes derived from Chem-1 cells expressing human recombinant PAC1-R long isoform in incubation buffer. The mixture was then incubated for 1 hour at 25° C. Following incubation, the samples were filtered and washed. Afterward, the filters were counted to quantitate ¹²⁵I-labelled PACAP27. As an experimental control, non-specific binding to the cell membranes was estimated using 0.1 μM of […] PACAP27.

For assay [8] the target is unchanged. Nature of the assay: SPR (ProteOn XPR36), antibody amine-coupled, peptide analyte, 1:1 Langmuir fit. As for the experimental part:
(§1) Binding affinities of monoclonal antibodies for human PACAP were estimated using SPR on the PROTEON™ XPR36 (Bio-Rad, Hercules, CA). Antibody was immobilized to the surface of general amine coupling (“GLC” or “GLM”) Chips (Bio-Rad, Hercules, CA). […] Antigen (ranging from 1.23 nM to 100 nM) was typically run sequentially with association times of 2-4 minutes and dissociation times of 3-120 minutes grouped with the PROTEON™ Manager Software (v3.1.0.6 (Bio-Rad, Hercules, CA)) and fitted using a 1:1 Langmuir binding model. Surfaces were regenerated between analyte queries using 0.85% Phosphoric Acid.

The target in assay [9] is T2, PACAP38 (Pituitary Adenylate …). The assay is described as above. As for the experimental part: as §1
Assay [10] shares this target. Description: inhibition of 30 nM biotinylated PACAP38 binding to PAC1-R-expressing PC-12 cells, Eu-streptavidin TRF. The procedure: To identify antibodies that block PACAP38 binding to PAC1-R-expressing cells, adherent PC-12 cells (ATCC, Manassas, VA) expressing PAC1-R were used in a Europium-based PAC1-R-expressing cells binding assay. Antibody solutions were incubated with N-terminal biotinylated PACAP38 at 10× the final concentration (100 nM or 30 nM) for 1 hr, then added to PC-12 cells that were plated 24 hrs prior in black clear bottom 96 well plates (COSTAR™, Corning Incorporated, Corning, NY) and further incubated for 1 hr at room temperature. After three washes, the cells were incubated with 20 μl Europium-labeled streptavidin (PerkinElmer, Waltham, MA) for 1 hr at room temperature. Cells were washed three times, then 20 μl DELFIA® Enhancement solution (PerkinElmer, Waltham, MA) was added to each well and incubated for 15 minutes with gentle shaking. Plates were read (Time Resolved Fluorescence (“TRF”)) on SPECTRAMAX® (Molecular Devices, Sunnyvale, CA) plate reader.
FIGS. 14A-14H are representative of the inhibition curves obtained by this method (results are shown for Ab10, Ab20, Ab21, Ab1.H, Ab10.H, Ab21.H, Ab22, and Ab23, respectively) wherein the PAC1-R expressing cells were PC-12 cells.

Assay [11] deals with T3, PACAP27 (Pituitary Adenylate …). Description: cell-based or functional assay.
Assay [12] deals with T2, PACAP38 (Pituitary Adenylate …). Description: cell-based or functional assay.

B1: Ab10.H3 (antibody, human IgG1, kappa, N297A)
heavy: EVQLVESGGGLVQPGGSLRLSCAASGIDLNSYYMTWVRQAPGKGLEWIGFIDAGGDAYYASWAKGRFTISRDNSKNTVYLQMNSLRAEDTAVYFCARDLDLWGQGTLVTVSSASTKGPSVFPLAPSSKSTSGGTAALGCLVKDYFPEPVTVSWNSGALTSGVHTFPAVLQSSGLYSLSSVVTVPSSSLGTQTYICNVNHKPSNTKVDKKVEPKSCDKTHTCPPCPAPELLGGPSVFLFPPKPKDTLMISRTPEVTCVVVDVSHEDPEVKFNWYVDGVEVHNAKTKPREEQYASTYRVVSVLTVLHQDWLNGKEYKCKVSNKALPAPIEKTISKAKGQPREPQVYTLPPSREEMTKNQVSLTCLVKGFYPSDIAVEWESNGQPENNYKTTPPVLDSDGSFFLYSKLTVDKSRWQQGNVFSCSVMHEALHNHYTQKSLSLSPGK
light: DIQLTQSPSTLSASVGDRVTITCQSSESVYGNYLAWFQQKPGKAPKFLIYEASKLESGVPSRFSGSGSGTEFTLTISSLQPDDFATYYCAGGDISEGVAFGGGTKVEIKRTVAAPSVFIFPPSDEQLKSGTASVVCLLNNFYPREAKVQWKVDNALQSGNSQESVTEQDSKDSTYSLSSTLTLSKADYEKHKVYACEVTHQGLSSPVTKSFNRGEC
notes: Full-length humanized variant of Ab10
As for B1, in assay [1], the affinity, expressed as Kd, was 91 nM; the koff (commonly the first-order rate constant of dissociation) is 0.013 s⁻¹; the kon (as a rule, the second-order rate constant of association) was 140000 M⁻¹ s⁻¹. In addition, in [2], the “Inhibition of 1 nM PACAP38-induced human VPAC2-R mediated cAMP increase IC50 (pM)” value was determined as 301 pM. In assay [3], the “Inhibition of 1 nM PACAP27-induced PAC1-R mediated cAMP increase IC50 (pM)” value was 321 pM. For the same molecule, the “Inhibition of 0.1 nM PACAP38-induced PAC1-R mediated cAMP increase IC50 (pM)” value in assay [4] stood at 30.7 pM. Further, in assay [5], the “Inhibition of 5 nM PACAP38-induced human VPAC1-R mediated cAMP increase IC50 (pM)” value came to 1520 pM. The binding result in [6] is reported as “no binding (tested: about 70 nM)”. Further, the IC50 (in general, the concentration that inhibits the measured activity by half) in assay [7] was determined as 0.21 nM. In assay [8], the Kd (as a rule, a measure of binding affinity in units of concentration) is ≤ 0.059 nM; the koff was ≤ 1e-05 s⁻¹; the on-rate (kon) was 170000 M⁻¹ s⁻¹. For the same molecule, in assay [9], the Kd was ≤ 0.022 nM, the koff is ≤ 1e-05 s⁻¹ and the kon was found to be 450000 M⁻¹ s⁻¹.

B2: Ab21.H (antibody, human IgG1, kappa, N297A)
heavy: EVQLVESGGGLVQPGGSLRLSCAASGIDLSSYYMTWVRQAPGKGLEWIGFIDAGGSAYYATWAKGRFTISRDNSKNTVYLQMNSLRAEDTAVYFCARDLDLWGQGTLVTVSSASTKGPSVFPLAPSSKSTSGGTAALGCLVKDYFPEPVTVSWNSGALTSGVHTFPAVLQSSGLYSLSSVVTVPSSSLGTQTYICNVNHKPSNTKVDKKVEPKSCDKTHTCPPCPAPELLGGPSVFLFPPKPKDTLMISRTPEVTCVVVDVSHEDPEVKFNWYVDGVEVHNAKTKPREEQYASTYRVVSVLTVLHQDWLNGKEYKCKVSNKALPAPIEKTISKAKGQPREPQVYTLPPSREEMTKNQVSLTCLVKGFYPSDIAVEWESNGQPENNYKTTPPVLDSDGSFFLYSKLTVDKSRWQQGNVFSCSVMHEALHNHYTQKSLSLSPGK
light: DAQLTQSPSTLSASVGDRVTITCKSSESVYGDYLAWFQQKPGKAPKQLIYDASTLASGVPSRFSGSGSGTEFTLTISSLQPDDFATYYCAGGYVSAGVAFGGGTKVEIKRTVAAPSVFIFPPSDEQLKSGTASVVCLLNNFYPREAKVQWKVDNALQSGNSQESVTEQDSKDSTYSLSSTLTLSKADYEKHKVYACEVTHQGLSSPVTKSFNRGEC
notes: Full-length humanized variant of Ab21
For B2, the IC50 in [10] was found to be 12.7 nM; in assay [7] it was 0.39 nM. Further, the Kd was 440 nM in assay [1], ≤ 0.016 nM in assay [8] and ≤ 0.021 nM in assay [9]. For the same molecule, the koff in assay [1] was 0.059 s⁻¹; in assay [8] it was ≤ 1e-05 s⁻¹; in assay [9], ≤ 1e-05 s⁻¹. In addition, the kon turned out to be 140000 M⁻¹ s⁻¹ in assay [1], 630000 M⁻¹ s⁻¹ in assay [8] and 480000 M⁻¹ s⁻¹ in [9]. In addition, the “Inhibition of 1 nM PACAP38-induced human VPAC2-R mediated cAMP increase IC50 (pM)” value in assay [2] was determined as 1510 pM. Further, in assay [5], the “Inhibition of 5 nM PACAP38-induced human VPAC1-R mediated cAMP increase IC50 (pM)” value worked out at 2100 pM. In addition, the “Inhibition of 0.1 nM PACAP27-induced PAC1-R mediated cAMP increase IC50 (pM)” value in [11] was 204 pM. Further, the “Inhibition of 0.1 nM PACAP38-induced PAC1-R mediated cAMP increase IC50 (pM)” value in assay [12] stood at 246 pM.
